Data as given in patent US6403637.

Tests used:
[1] = target: collagenase-3 receptor and low density lipoprotein receptor-related protein on MEF-1 cells; assay: competition with ^125I mouse collagenase-3 on MEF-1 cells; 200-, 400- and 800-fold excess of competitor
[2] = target: collagenase-3 dual receptor system on UMR 106-01 cells (collagenase-3 receptor and low density lipoprotein receptor-related protein); assay: competition with ^125I mouse collagenase-3 on UMR-106-01 cells; 200-, 400- and 800-fold excess of competitor
[3] = target: rat collagenase-3 receptor (170 kDa protein) of UMR 106-01 rat osteosarcoma cells and other rat cells (rat); assay: ^125I-labeled ligand at 8 nM on UMR cells, triplicate wells
[4] = target: rat collagenase-3 receptor (170 kDa protein) of UMR 106-01 rat osteosarcoma cells and other rat cells (rat); assay: ^125I-labeled ligand at 10 nM on UMR cells, triplicate wells
[5] = target: collagenase-3 receptor (170 kDa protein) of mouse embryo fibroblasts MEF-1 and MEF-2 (mouse) (UniProt Q64449); assay: competition with ^125I mouse collagenase-3 on MEF-2 (LRP null) cells; 200-, 400- and 800-fold excess of competitor
[6] = target: collagenase-3 dual receptor system on UMR 106-01 cells (collagenase-3 receptor and low density lipoprotein receptor-related protein); assay: competition with ^125I mouse collagenase-3 on UMR cells
[7] = target: low density lipoprotein receptor-related protein of human chondrocytes (UniProt Q07954); assay: cell-based or functional assay
[8] = target: low density lipoprotein receptor-related protein of human chondrocytes (UniProt Q07954)

collagenase-3 receptor (170 kDa protein) of mouse embryo fibroblasts MEF-1 and MEF-2 (mouse), sequence (Q64449 31-1479): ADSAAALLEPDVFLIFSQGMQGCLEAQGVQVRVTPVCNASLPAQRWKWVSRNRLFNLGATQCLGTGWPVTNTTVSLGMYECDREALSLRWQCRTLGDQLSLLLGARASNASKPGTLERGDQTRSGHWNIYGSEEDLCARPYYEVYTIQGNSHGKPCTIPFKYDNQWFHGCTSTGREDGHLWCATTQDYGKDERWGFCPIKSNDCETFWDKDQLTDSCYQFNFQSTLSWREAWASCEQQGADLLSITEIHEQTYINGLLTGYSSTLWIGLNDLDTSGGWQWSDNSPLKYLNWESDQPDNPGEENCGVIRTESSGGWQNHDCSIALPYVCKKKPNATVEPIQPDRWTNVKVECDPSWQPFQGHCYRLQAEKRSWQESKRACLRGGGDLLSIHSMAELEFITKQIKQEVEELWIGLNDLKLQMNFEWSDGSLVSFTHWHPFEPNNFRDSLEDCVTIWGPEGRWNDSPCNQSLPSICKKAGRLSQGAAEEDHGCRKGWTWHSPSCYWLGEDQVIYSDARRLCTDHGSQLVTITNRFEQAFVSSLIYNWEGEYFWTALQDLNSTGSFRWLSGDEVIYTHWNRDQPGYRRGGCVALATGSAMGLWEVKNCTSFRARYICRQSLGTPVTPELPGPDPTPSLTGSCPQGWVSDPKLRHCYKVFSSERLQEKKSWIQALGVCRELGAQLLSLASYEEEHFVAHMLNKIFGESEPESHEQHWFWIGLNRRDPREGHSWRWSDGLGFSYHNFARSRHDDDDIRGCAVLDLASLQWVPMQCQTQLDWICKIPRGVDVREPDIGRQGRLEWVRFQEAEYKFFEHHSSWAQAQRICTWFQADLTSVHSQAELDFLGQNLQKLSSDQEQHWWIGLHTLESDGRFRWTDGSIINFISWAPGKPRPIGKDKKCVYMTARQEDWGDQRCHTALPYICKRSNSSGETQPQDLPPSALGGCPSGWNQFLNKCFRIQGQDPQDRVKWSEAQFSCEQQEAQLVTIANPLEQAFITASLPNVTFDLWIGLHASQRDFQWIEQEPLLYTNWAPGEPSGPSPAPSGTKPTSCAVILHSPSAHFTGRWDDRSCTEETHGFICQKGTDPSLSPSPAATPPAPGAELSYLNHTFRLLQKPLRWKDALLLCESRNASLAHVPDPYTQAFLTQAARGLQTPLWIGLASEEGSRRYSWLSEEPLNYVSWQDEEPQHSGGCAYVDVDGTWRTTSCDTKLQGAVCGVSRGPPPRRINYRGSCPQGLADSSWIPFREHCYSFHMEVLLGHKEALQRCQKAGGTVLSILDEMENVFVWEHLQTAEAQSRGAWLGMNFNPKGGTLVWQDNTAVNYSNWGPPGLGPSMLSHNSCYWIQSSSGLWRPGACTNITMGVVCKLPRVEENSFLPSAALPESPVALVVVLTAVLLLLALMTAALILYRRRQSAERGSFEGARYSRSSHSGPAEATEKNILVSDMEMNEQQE
rat collagenase-3 receptor (170 kDa protein) of UMR 106-01 rat osteosarcoma cells and other rat cells (rat), sequence (Q4TU93 31-1480): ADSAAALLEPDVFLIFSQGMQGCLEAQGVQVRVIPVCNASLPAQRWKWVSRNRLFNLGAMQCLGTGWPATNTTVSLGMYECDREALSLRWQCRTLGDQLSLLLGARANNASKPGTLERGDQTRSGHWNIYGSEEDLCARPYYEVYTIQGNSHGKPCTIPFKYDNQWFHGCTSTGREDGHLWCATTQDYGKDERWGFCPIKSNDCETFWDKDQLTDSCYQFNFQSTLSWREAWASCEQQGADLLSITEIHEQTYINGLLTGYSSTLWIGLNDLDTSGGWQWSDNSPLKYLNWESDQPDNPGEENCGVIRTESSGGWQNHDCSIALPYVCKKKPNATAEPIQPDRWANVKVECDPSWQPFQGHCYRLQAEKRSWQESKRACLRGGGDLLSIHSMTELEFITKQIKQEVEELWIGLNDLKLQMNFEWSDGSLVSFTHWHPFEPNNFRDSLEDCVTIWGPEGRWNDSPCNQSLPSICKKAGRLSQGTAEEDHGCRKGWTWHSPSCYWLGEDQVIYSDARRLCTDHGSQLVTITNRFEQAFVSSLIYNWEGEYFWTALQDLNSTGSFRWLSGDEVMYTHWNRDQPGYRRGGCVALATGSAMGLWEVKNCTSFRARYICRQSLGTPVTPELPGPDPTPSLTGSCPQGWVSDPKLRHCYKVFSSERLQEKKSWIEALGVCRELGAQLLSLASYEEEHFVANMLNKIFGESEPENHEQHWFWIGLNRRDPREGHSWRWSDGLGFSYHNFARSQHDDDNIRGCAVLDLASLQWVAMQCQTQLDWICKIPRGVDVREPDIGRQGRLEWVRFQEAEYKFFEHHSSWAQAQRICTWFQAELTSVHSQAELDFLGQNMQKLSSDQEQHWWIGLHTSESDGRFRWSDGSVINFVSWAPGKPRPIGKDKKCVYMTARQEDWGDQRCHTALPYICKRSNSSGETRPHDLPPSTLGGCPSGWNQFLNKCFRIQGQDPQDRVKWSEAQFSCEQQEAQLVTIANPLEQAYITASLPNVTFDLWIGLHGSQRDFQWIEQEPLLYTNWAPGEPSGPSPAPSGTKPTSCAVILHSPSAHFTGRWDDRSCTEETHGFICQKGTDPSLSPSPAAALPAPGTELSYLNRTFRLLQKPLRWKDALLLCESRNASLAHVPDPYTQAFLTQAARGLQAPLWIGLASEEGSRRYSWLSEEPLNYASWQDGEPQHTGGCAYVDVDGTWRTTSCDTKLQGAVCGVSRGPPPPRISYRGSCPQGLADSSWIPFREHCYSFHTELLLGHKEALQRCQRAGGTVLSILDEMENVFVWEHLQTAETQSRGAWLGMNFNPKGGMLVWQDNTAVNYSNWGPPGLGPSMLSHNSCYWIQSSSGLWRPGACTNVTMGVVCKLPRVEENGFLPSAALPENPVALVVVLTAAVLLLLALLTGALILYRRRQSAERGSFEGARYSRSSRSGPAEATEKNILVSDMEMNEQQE
human fibroblast collagenase-1 (MMP-1), sequence (P03956 100-469): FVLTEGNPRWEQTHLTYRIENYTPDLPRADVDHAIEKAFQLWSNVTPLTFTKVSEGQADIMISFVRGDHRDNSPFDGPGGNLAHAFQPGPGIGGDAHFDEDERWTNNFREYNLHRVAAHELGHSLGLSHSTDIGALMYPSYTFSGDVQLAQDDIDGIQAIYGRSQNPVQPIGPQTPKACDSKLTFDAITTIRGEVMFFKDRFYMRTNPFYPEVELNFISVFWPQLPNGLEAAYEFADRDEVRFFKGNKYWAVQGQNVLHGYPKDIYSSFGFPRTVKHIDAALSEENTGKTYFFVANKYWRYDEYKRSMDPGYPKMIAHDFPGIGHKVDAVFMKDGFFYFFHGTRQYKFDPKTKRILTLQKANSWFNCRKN
human 92 kDa gelatinase (MMP-9), sequence (P14780 20-707 limits assumed): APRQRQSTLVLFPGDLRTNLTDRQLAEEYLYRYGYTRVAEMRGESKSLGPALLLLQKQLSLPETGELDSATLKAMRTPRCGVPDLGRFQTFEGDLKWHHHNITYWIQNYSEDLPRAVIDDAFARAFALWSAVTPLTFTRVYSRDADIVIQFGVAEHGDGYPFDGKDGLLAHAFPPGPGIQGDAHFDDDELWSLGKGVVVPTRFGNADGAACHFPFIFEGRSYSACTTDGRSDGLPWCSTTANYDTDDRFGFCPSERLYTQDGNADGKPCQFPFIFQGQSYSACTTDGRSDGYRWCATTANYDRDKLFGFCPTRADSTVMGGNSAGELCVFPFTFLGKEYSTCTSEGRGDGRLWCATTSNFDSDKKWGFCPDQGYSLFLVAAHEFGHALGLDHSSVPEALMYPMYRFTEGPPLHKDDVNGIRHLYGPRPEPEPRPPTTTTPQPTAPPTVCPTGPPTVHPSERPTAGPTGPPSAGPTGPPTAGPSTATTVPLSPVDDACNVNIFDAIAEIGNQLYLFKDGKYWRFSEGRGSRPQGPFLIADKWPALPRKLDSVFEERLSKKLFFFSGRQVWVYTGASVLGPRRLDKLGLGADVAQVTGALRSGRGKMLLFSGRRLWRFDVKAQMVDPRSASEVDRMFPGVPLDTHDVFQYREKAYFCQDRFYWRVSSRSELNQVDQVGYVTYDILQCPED
human 72 kDa gelatinase (MMP-2), sequence (P08253 30-660 limits assumed): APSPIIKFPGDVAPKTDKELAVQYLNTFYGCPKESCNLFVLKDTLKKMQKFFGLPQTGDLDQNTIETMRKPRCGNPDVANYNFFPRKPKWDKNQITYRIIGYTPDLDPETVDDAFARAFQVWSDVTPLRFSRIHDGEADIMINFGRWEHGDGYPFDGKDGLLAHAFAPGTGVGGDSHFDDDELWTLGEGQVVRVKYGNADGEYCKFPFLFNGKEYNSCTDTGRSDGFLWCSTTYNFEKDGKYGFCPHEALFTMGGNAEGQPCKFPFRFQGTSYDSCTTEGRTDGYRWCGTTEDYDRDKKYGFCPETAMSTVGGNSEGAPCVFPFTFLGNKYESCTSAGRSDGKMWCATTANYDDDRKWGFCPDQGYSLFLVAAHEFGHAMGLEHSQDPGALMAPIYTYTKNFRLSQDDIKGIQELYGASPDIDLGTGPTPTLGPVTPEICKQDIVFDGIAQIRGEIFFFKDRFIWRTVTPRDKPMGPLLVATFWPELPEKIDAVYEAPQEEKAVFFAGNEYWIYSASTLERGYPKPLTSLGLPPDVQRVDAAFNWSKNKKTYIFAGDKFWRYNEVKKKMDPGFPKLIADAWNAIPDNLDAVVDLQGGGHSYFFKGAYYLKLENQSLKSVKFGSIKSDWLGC

| Substance | percent of mouse collagenase-3 binding [1] [%] | percent of mouse collagenase-3 binding [2] [%] | other results |
| --- | --- | --- | --- |
| human 72 kDa gelatinase (MMP-2) (from UniProt P08253 30-660) (enzyme) |  |  | Specific binding (fmol/2.6 × 10^5 cells) [3]: 0 |
| human 92 kDa gelatinase (MMP-9) (from UniProt P14780 20-707) (enzyme) |  |  | Specific binding (fmol/2.6 × 10^5 cells) [4]: 3.9 |
| recombinant mouse collagenase-3 (mMMP-13, residues 1-472) (from UniProt P33435 20-472) (enzyme) | 100 | 100 |  |
| human stromelysin-1 (MMP-3) (from UniProt P08254 18-477) (enzyme) |  |  | Specific binding (fmol/2.6 × 10^5 cells) [3]: 0 |
| HM(141-228)/H chimeric collagenase (from UniProt P03956 20-135; P33435 141-228; P03956 224-408) (enzyme) | 94.3 | 89.9 | percent of mouse collagenase-3 binding [5]: 75.1% |
| M(1-228)/H chimeric collagenase (from UniProt P33435 20-228; P03956 224-408) (enzyme) | 85.9 | 85.3 | competition efficiency compared to full-length collagenase-3 [6]: > 90%; percent of mouse collagenase-3 binding [5]: 41.9% |
| ^125I collagenase-3 of Example 3 (enzyme) |  |  | inhibition of collagenase-3 internalization by receptor-associated protein in control human chondrocytes [7]: 88.2% |
| C-terminally truncated mouse collagenase-3, M(1-265) (from UniProt P33435 20-265) (enzyme) | 100 | 100 |  |
| ^125I collagenase-3 of Example 3 |  |  | reduction of collagenase-3 internalization by RAP in osteoarthritis chondrocytes [8]: by 74.3% |

Further lines, with some results ahead:

| percent of mouse collagenase-3 binding [1] [%] | percent of mouse collagenase-3 binding [2] [%] | Substance | other results |
| --- | --- | --- | --- |
| 84.4 | 95.7 | HM/M(141-472) chimeric collagenase (from UniProt P03956 20-135; P33435 141-472) (enzyme) |  |
| 2.2 | 16.5 | H/M(229-472) chimeric collagenase (from UniProt P03956 20-223; P33435 229-472) (enzyme) |  |
|  | 0 | human fibroblast collagenase-1 (MMP-1) (from UniProt P03956 100-469) (enzyme) | Specific binding (fmol/2.6 × 10^5 cells) [3]: 0.1 |
| 80.8 | 67.8 | HM(166-228)/H chimeric collagenase (from UniProt P03956 20-160; P33435 166-228; P03956 224-408) (enzyme) | percent of mouse collagenase-3 binding [5]: 97.2% |
| 99.1 | 95.5 | MH(213-267)/M chimeric collagenase (exon 5 replacement) (from UniProt P33435 20-212; P03956 213-267; P33435 268-472) (enzyme) | percent of mouse collagenase-3 binding [5]: 98.7% |
